Experimental data as given in the supplement of paper PMC11246515.
± gives the standard deviation of the averaged measurements.

Assay: total protein half-life in vivo (active degradation + dilution); higher = more stable protein
[1] = E. coli NCM3722 delta-clpP delta-lon delta-hslV, growth: N-lim chemostat, doubling time 6 h
[2] = E. coli NCM3722 delta-clpP, growth: N-lim chemostat, doubling time 6 h
[3] = E. coli NCM3722 delta-hslV, growth: N-lim chemostat, doubling time 6 h
[4] = E. coli NCM3722 delta-lon, growth: N-lim chemostat, doubling time 6 h
[5] = E. coli NCM3722 delta-smpB, growth: N-lim chemostat, doubling time 6 h
[6] = wild type E. coli NCM3722, growth: C-lim chemostat, doubling time 3 h
[7] = wild type E. coli NCM3722, growth: C-lim chemostat, doubling time 6 h
[8] = wild type E. coli NCM3722, growth: C-lim chemostat, doubling time 12 h
[9] = wild type E. coli NCM3722, growth: N-lim chemostat, doubling time 6 h
[10] = wild type E. coli NCM3722, growth: N-lim chemostat, doubling time 12 h
[11] = wild type E. coli NCM3722, growth: P-lim chemostat, doubling time 6 h
[12] = wild type E. coli NCM3722, growth: P-lim chemostat, doubling time 12 h

Row | Sequence | total protein half-life in vivo [1] | total protein half-life in vivo [2] | total protein half-life in vivo [3] | total protein half-life in vivo [4] | total protein half-life in vivo [5] | total protein half-life in vivo [6] | total protein half-life in vivo [7] | total protein half-life in vivo [8] | total protein half-life in vivo [9] | total protein half-life in vivo [10] | total protein half-life in vivo [11] | total protein half-life in vivo [12]
1 | MAETKIVVGPQPFSVGEEYPWLAERDEDGAVVTFTGKVRNHNLGDSVNALTLEHYPGMTEKALAEIVDEARNRWPLGRVTVIHRIGELWPGDEIVFVGVTSAHRSSAFEAGQFIMDYLKTRAPFWKREATPEGDRWVEARESDQQAAKRW | 4.68 ± 0.7 h | 3.99 ± 0.26 h | 5.32 ± 0.47 h | 4.42 ± 0.088 h | 3.5 ± 0.33 h | 2.7 ± 0.15 h | 5.78 ± 0.33 h | 8.46 ± 0.13 h | 4.573 ± 0.012 h | 6.78 h | 6.8 ± 1.3 h | 11.1 ± 0.62 h
2 | MNMFFRLTALAGLLAIAGQTFAVEDITRADQIPVLKEETQHATVSERVTSRFTRSHYRQFDLDQAFSAKIFDRYLNLLDYSHNVLLASDVEQFAKKKTELGDELRSGKLDVFYDLYNLAQKRRFERYQYALSVLEKPMDFTGNDTYNLDRSKAPWPKNEAELNALWDSKVKFDELSLKLTGKTDKEIRETLTRRYKFAIRRLAQTNSEDVFSLAMTAFAREIDPHTNYLSPRNTEQFNTEMSLSLEGIGAVLQMDDDYTVINSMVAGGPAAKSKAISVGDKIVGVGQTGKPMVDVIGWRLDDVVALIKGPKGSKVRLEILPAGKGTKTRTVTLTRERIRLEDRAVKMSVKTVGKEKVGVLDIPGFYVGLTDDVKVQLQKLEKQNVSSVIIDLRSNGGGALTEAVSLSGLFIPAGPIVQVRDNNGKVREDSDTDGQVFYKGPLVVLVDRFSASASEIFAAAMQDYGRALVVGEPTFGKGTVQQYRSLNRIYDQMLRPEWPALGSVQYTIQKFYRVNGGSTQRKGVTPDIIMPTGNEETETGEKFEDNALPWDSIDAATYVKSGDLTAFEPELLKEHNARIAKDPEFQNIMKDIARFNAMKDKRNIVSLNYAVREKENNEDDATRLARLNERFKREGKPELKKLDDLPKDYQEPDPYLDETVNIALDLAKLEKARPAEQPAPVK | 6.08 ± 0.32 h | 6.08 ± 0.59 h | 6.0465 ± 0.0037 h | 6.36 ± 0.18 h | 5.95 ± 0.39 h | 2.99 ± 0.082 h | 5.66 ± 0.27 h | 10.9 ± 1.1 h | 6.13 ± 0.35 h | 12.8 ± 0.28 h | 5.879 ± 0.052 h | 12.9 ± 1.3 h
3 | MAKEFGRPQRVAQEMQKEIALILQREIKDPRLGMMTTVSGVEMSRDLAYAKVYVTFLNDKDEDAVKAGIKALQEASGFIRSLLGKAMRLRIVPELTFFYDNSLVEGMRMSNLVTSVVKHDEERRVNPDDSKED [P0A7G2] |  | 4.7644 ± 0.0036 h | 4.43 ± 0.063 h | 5.76 ± 0.31 h | 4.56 ± 0.23 h | 2.87 ± 0.079 h | 5.38 ± 0.84 h | 10.3 ± 0.93 h | 4.6 ± 0.22 h | 7.76 ± 0.5 h | 4.66 ± 0.12 h | 8.771 ± 0.013 h
4 | MSLPFLRTLQGDRFFQLLILVGIGLSFFVPFAPKSWPAAIDWHTIITLSGLMLLTKGVELSGYFDVLGRKMVRRFATERRLAMFMVLAAALLSTFLTNDVALFIVVPLTITLKRLCEIPVNRLIIFEALAVNAGSLLTPIGNPQNILIWGRSGLSFAGFIAQMAPLAGAMMLTLLLLCWCCFPGKAMQYHTGVQTPEWKPRLVWSCLGLYIVFLTALEFKQELWGLVIVAAGFALLARRVVLSVDWTLLLVFMAMFIDVHLLTQLPALQGVLGNVSHLSEPGLWLTAIGLSQVISNVPSTILLLNYVPPSLLLVWAVNVGGFGLLPGSLANLIALRMANDRRIWWRFHLYSIPMLLWAALVGYVLLVILPAN |  |  |  |  |  |  |  |  |  | 9.39 h |  | 
5 | MNPIAVTLLTGFLGAGKTTLLRHILNEQHGYKIAVIENEFGEVSVDDQLIGDRATQIKTLTNGCICCSRSNELEDALLDLLDNLDKGNIQFDRLVIECTGMADPGPIIQTFFSHEVLCQRYLLDGVIALVDAVHADEQMNQFTIAQSQVGYADRILLTKTDVAGEAEKLHERLARINARAPVYTVTHGDIDLGLLFNTNGFMLEENVVSTKPRFHFIADKQNDISSIVVELDYPVDISEVSRVMENLLLESADKLLRYKGMLWIDGEPNRLLFQGVQRLYSADWDRPWGDEKPHSTMVFIGIQLPEEEIRAAFAGLRK | 5.11 ± 1.4 h | 3.49 ± 0.12 h | 3.471 ± 0.032 h | 3.97 ± 0.38 h | 3.65 ± 0.28 h | 2.876 ± 0.022 h | 5.139 ± 0.017 h | 8.715 ± 0.082 h | 3.52 ± 0.3 h | 6.14 ± 0.095 h | 4.95 ± 0.4 h | 10 ± 0.33 h
